Laboratory results reported in US20220153832A1 (PIONYR IMMUNOTHERAPEUTICS, published 2022).

T1: Cynomolgus MARCO, full length, on cells (cynomolgus, UniProt A0A2K5X0Z2 1-519)
T1 construct: whole, on cells; also called cyno MARCO; CyMARCO
T1 sequence: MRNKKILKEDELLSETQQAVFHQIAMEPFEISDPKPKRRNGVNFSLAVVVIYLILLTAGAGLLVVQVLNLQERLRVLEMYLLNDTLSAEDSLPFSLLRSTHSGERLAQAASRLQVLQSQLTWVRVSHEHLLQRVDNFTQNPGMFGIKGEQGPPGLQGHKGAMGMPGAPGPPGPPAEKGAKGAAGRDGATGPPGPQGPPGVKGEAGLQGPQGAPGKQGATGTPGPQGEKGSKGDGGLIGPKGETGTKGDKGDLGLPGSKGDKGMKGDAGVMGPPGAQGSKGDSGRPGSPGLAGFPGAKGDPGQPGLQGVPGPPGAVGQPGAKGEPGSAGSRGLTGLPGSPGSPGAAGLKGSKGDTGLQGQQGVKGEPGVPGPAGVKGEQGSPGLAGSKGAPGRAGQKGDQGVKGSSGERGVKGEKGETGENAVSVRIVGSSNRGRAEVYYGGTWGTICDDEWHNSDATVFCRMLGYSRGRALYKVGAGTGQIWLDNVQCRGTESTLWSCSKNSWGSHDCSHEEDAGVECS

T2: Human Macrophage Receptor with Collagenous Structure (MARCO), full length, on cells (human, UniProt Q9UEW3 1-520)
T2 construct: the cell type is named under assay; also called huMARCO; HuMARCO
T2 sequence: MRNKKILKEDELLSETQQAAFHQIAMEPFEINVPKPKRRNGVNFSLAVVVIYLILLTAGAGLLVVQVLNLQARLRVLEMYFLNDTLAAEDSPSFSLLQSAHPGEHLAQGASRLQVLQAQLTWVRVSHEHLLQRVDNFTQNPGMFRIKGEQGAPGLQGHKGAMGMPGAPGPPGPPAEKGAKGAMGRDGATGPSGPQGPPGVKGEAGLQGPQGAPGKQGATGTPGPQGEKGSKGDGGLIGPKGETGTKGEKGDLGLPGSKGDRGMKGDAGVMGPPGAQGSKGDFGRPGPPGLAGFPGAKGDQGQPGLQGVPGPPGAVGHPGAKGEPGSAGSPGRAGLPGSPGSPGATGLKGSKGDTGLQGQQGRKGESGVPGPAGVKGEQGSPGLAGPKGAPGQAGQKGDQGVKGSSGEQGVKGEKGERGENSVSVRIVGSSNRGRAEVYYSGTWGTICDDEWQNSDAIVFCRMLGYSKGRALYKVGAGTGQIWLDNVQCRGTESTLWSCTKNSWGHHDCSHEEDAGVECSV


What was measured:
[1] = molecular target: T1, Cynomolgus MARCO, full length, on cells; experiment: flow cytometry, cells overexpressing cyno MARCO
[2] = molecular target: T1, Cynomolgus MARCO, full length, on cells; experiment: flow cytometry, 293T CyMARCO cells
In short: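 Binding to HEK293T cells expressing human or cynomolgus MARCO was measured by flow cytometry at 100,000 cells/well after Zombie NIR viability staining. Antibodies started at 100 nM in an 8-point three-fold dilution in D-PBS/2% FBS/2 mM EDTA for 1 hr on ice, then APC goat anti-mouse IgG for 30 min on ice. Cells were acquired on an Attune NxT. Geometric mean fluorescence intensities were analysed in FlowJo and Prism.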

[3] = molecular target: T2, Human Macrophage Receptor with …; experiment: competition with AF488 E. coli binding to 293T cells expressing MARCO, flow cytometry
Description: Zombie NIR viability dye (BioLegend) was prepared by diluting the stock 1000-fold in D-PBS and added to the cells. The cells were incubated with the dye for 10 min at RT in the dark. The reaction was quenched by adding 1 m of 4× Staining buffer (2% FBS in DBPS containing Ca²⁺), followed by centrifugation at 400×g for 5 min at 4° C. Cells were then plated in V-shaped 96 well plates at a density of 100,000 cells. A488-fluorescently labeled bacteria (E. coli from Invitrogen) was added at 10 μg/ml with the anti-human or anti-mouse antibodies of interest for a 30 min incubation at 37 C. Plates were then washed twice followed by resuspension in 100 ul of staining buffer for acquisition on the flow cytometer (Attune NxT, Life Technologies). Flow cytometry data were analyzed using FlowJo software (version 10.6.1) and data were processed and further analyzed in Microsoft Excel and GraphPad Prism software (version 8).
The newly generated rat hybridoma anti-human MARCO antibodies were characterized as previously described. Neither antibody bound to MSR1. Binding kinetics were determined via Multi Cycle Kinetics analysis using the huMARCO antigen as previously described.

EC50 [1] [nM] | binding result [2] | EC50 [3] [nM] | Binder
1.73 | – | – | PI-3015-AB (antibody, human IgG1, kappa) heavy: not shown light: DIQMTQSPSSLSASVGDRVTITCRASEGISNDLAWYQQKPGKAPKLLIYAASRLQSGVPSRFSGSGSGTDYTLTISSMQPEDFATYYCQQSYKYPLTFGQGTKLEIKRTVAAPSVFIFPPSDEQLKSGTASVVCLLNNFYPREAKVQWKVDNALQSGNSQESVTEQDSKDSTYSLSSTLTLSKADYEKHKVYACEVTHQGLSSPVTKSFNRGEC
1.48 | – | – | PI-3010-AB (antibody, human IgG1, kappa) heavy: not shown light: DIQMTQSPASLSTSLGETVSIECLASEGISNDLAWYQQKSGKSPQLLIYAASRLQDGVPSRFSGSGSGTRYSLKISGMQPEDEADYFCQQSYKYPLTFGSGTKLEIKRTVAAPSVFIFPPSDEQLKSGTASVVCLLNNFYPREAKVQWKVDNALQSGNSQESVTEQDSKDSTYSLSSTLTLSKADYEKHKVYACEVTHQGLSSPVTKSFNRGEC
– | no binding | – | PI-HX-3021 (antibody, V domains shown, Rat IgG2a hybridoma antibody; Not the effector dead PI-3021; also called PI-3007 (name of the recombinant form)) VH: QVRLVQSGTALVRPGASVRMSCTASGYSFTDYWVSWVKQSHGQSLEWIGEIYPNSGTTNFNEKFEGKATLTVDKSTSTAYMELSRLTSEDSAIYYCTGEGTFDYWGQGVMVTVSS VL: EIVLTQSPTTMAASPGEKVTITCRPSSSLSNMHWFQQKSGTSPKPWIYDTSKLASGVPDRFSGSGSGTSYSLTISSMEAEDAATYYCLQRSSYPPTFGAGTKLELK
– | no binding | – | PI-HX-3016 (antibody, rat IgG1, V domains shown, Rat IgG1 hybridoma antibody) VH: EVQLVESGGGLVKPGASLKLSCVASGFTFSDDWMNWVRQTPGKAMEWIGDIKYDGSYTNYVPSLKNRLTISRDNAKNTLYLQMTNVRSEDTATYYCTSGGVFDYWGQGVMVTVSS VL: EIVLSQSPTTMAASPGEKVTITCRASSSVSYMHWFQQKSGTSPKPWIYDTSKLASGVPDRFSGSGSGTSYSLTISSMEAEDAATYYCLQRSGYPPTFGAGTKLEVK
– | – | 0.52 | PI-HX-3061 (antibody, rat IgG2a, Parental rat hybridoma, rat IgG2a; cross reactive with human and mouse MARCO) heavy: EVQLVESGGGLVQPGSSLKLSCVASKFTFSNYGMNWIRQAPKKGLEWIALIYYNSNNKYYADSVKGRFTISRDNSKNTLYLEMNSLRSEDTAMYYCAKSLTGGSDYFDSWGQGVMVTVSSAETTAPSVYPLAPGTALKSNSMVTLGCLVKGYFPEPVTVTWNSGALSSGVHTFPAVLQSGLYTLTSSVTVPSSTWPSQTVTCNVAHPASSTKVDKKIVPRNCGGDCKPCICTGSEVSSVFIFPPKPKDVLTITLTPKVTCVVVDISQDDPEVHFSWFVDDVEVHTAQTRPPEEQFNSTFRSVSELPILHQDWLNGRTFRCKVTSAAFPSPIEKTISKPEGRTQVPHVYTMSPTKEEMTQNEVSITCMVKGFYPPDIYVEWQMNGQPQENYKNTPPTMDTDGSYFLYSKLNVKKEKWQQGNTFTCSVLHEGLHNHHTEKSLSHSP light: DVQMTQSPSYLAASPGESVSISCKASKSIGTFLAWYQEKPEKTNKLLIYSGSTLQSGTPSRFSGSGSGTDFTLTIRNLEPEDFAVYYCQQHDEYPFTFGSGTKLEIKRADAAPTVSIFPPSTEQLATGGASVVCLMNNFYPRDISVKWKIDGTERRDGVLDSVTDQDSKDSTYSMSSTLSLTKADYESHNLYTCEVVHKTSSSPVVKSFNRNEC
– | – | 0.18 | PI-HX-3031 (antibody, Parental rat hybridoma, rat IgG2a) heavy: QVQLKESGPGLVQPSQTLSLTCTVSGFSLTSYHVSWVRQPPGKGLEWMGAIWTGGSIAYNSLLKSRLSISRDTSKSQVFLKMNSLQTEDTATYYCARDLSDYYSSYTSFDYWGQGVMVTVSTAETTAPSVYPLAPGTALKSNSMVTLGCLVKGYFPEPVTVTWNSGALSSGVHTFPAVLQSGLYTLTSSVTVPSSTWSSQAVTCNVAHPASSTKVDKKIVPRECNPCGCTGSEVSSVFIFPPKTKDVLTITLTPKVTCVVVDISQNDPEVRFSWFIDDVEVHTAQTHAPEKQSNSTLRSVSELPIVHRDWLNGKTFKCKVNSGAFPAPIEKSISKPEGTPRGPQVYTMAPPKEEMTQSQVSITCMVKGFYPPDIYTEWKMNGQPQENYKNTPPTMDTDGSYFLYSKLNVKKETWQQGNTFTCSVLHEGLHNHHTEKSLSHSP light: DIQMTQSPASLSTSLGETVSIECLASEGISNDLAWYQQKSGKSPQLLIYAASRLQDGVPSRFSGSGSGTRYSLKISGMQPEDEADYFCQQSYKYPLTFGSGTKLEIKRADAAPTVSIFPPSTEQLATGGASVVCLMNNFYPRDISVKWKIDGTERRDGVLDSVTDQDSKDSTYSMSSTLSLTKADYESHNLYTCEVVHKTSSSPVVKSFNRNEC
